Reference: EP4201483A1, “LPL1 DERIVED IMMUNE ENHANCING PEPTIDES” (priority 2021, dated 2023)

B1: TAKGHYFVTTFYRNGKLPDEKNYKIEMKNNKIILLDEVKDDKLKQKIENFKFFGQYANL KELRK (peptide, listed as Staphylococcus aureus)
chain: TAKGHYFVTTFYRNGKLPDEKNYKIEMKNNKIILLDEVKDDKLKQKIENFKFFGQYANLKELRK
notes: 64 aa domain of S.aureus Lpli protein
B2: LNC2: Lpl1 derived peptide, 64 aa, sequence shown as image only (peptide)
peptide: DEIVKELRSRYNISTEKSPILKMHIDGDLKGSSVGYRKLEIDFSKRENSKLSVIEFLSYKPAKK

Experiments:
HaCaT cells [1] = test: S. aureus USA300 invasion / internalization by HaCaT keratinocytes; type: cell-based, human; design: key: ⇑: increased invasion and F-actin level; ⇓: decreased invasion and F-actin level; details: Triggering invasion of USA300 by keratinocytes (HaCaT)
Description: (§1) To identify Lpli motifs that interact with the target protein Hsp90α the inventors synthesized peptides of various length covering the whole Lpli protein. All the peptides (> 40) were tested for their ability a) to interact with Hsp90α, and b) to trigger S. aureus internalization by keratinocyte-like HaCaT cells. Table 1: Selected Lpl1 derived peptides with their effect on USA300 invasion in HaCaT keratinocytes, interaction with Hsp90α and F-actin levels in HaCaT cells
The inventors compared the effect on host internalization of L13 and L15 with that of geldanamycin. Geldanamycin is a well-known cell permeable anti-neoplastic drug that competes with ATP for binding to Hsp90, thus inhibiting Hsp90 activity (Gorska et al., 2012). This in turn leads to inactivation, destabilization, and eventual degradation of Hsp90 client proteins, The geldanamycin analog 17AAG decreased F-actin formation upon Hsp90 inhibition (Taiyab & Rao Ch, 2011).

HaCaT cells [2] = test: F-actin levels in HaCaT cells; type: cell-based, human; design: key: ⇑: increased invasion and F-actin level; ⇓: decreased invasion and F-actin level
Description: as §1

| Molecule | Invasion (HaCaT cells [1]) | F-actin levels (HaCaT cells [2]) |
| --- | --- | --- |
| B1 | ⇑ | ⇑ |
| B2 | ⇑ | ⇑ |
